Test results taken from patent US20130310313A1.

Target: insulin receptor (insulin receptor tyrosine kinase assay)
Assay: cell-based or functional assay

activity of insulin receptor tyrosine kinase | Binder
66 U/ml | RYKYQCWYI [IRBP-9D (SEQ ID NO:193)]
44.2 U/ml | RYKYQWWYI [IRBP-9C (SEQ ID NO:192)]
40.3 U/ml | RYKYQWFYI [IRBP-9A (SEQ ID NO:190)]
79.8 U/ml | RYKYQCFYI [IRBP-9B (SEQ ID NO:191)]
